Data: PMC3035606, “Structural Basis of Response Regulator Dephosphorylation by Rap Phosphatases” (PLoS Biology, 2011)
Read-outs that look alike come from different tables or passages of the source.

B10: RapH (enzyme, B. subtilis)
chain: GSMSQAIPSSRVGVKINEWYKMIRQFSVPDAEILKAEVEQDIQQMEEDQDLLIYYSLMCFRHQLMLDYLEPGKTYGNRPTVTELLETIETPQKKLTGLLKYYSLFFRGMYEFDQKEYVEAIGYYREAEKELPFVSDDIEKAEFHFKVAEAYYHMKQTHVSMYHILQALDIYQNHPLYSIRTIQSLFVIAGNYDDFKHYDKALPHLEAALELAMDIQNDRFIAISLLNIANSYDRSGDDQMAVEHFQKAAKVSREKVPDLLPKVLFGLSWTLCKAGQTQKAFQFIEEGLDHITARSHKFYKELFLFLQAVYKETVDERKIHDLLSYFEKKNLHAYIEACARSAAAVFESSCHFEQAAAFYRKVLKAQEDILKGECLYAY
notes: two heterologous N-terminal residues (Gly-Ser) derived from the thrombin cleavage signal; RapH, B. subtilis strain 168, residues 1-376 (MW theor 44.1 kDa); Dimer in the crystal and in solution; also called RapHA; RapHB; source: E. coli BL21, purified (glutathione resin, thrombin, Source 15Q, Superdex 200; dialysis instead of gel filtration for the phosphatase and phosphotransfer assays); not …

Legend:
[1] = molecular target: T1, Spo0F~P (radiolabeled phosphorylated Spo0F-His) (B. subtilis) (UniProt P06628)
T1 sequence (chain, phosphoaspartate-54 (32P)): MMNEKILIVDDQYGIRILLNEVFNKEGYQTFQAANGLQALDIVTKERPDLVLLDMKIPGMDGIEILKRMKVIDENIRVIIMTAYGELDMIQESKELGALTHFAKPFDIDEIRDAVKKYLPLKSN

[2] = molecular target: T1, Spo0F~P (radiolabeled phosphorylated Spo0F-His) (B. subtilis); remark: listed apart in the source
[3] = molecular target: T1, Spo0F~P (radiolabeled phosphorylated Spo0F-His) (B. subtilis); remark: listed apart in the source
[4] = molecular target: T2, RapJ (B. subtilis), O34327; experiment: SEC; size exclusion chromatography with gel filtration standards; experimental against theoretical molecular weight; conditions: remark: other sources report otherwise
T2 chain: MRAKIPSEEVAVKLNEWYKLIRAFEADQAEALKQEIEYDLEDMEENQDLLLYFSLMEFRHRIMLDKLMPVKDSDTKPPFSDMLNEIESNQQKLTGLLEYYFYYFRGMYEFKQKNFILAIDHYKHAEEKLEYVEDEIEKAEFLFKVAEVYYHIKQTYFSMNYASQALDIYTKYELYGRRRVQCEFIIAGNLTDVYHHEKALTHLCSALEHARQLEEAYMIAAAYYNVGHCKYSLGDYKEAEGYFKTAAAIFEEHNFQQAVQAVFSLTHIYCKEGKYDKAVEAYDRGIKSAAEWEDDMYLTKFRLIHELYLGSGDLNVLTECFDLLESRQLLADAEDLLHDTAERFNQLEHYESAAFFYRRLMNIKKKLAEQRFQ

[5] = molecular target: B10; experiment: crystal structure; vapor diffusion at 20°C; 7.5 mg/ml RapH and 3.5 mg/ml Spo0F in 20 mM Tris-HCl (pH 8.0), 100 mM KCl, 2.5 mM DTT, 5 mM MgCl2; well 20% PEG 3350, 200 mM lithium sulphate, 100 mM Bis-Tris (pH 6.0); refined to 2.20 Å; conditions: both partners purified
[6] = molecular target: the molecule itself; experiment: as above
[7] = molecular target: B10; experiment: crystal structure; crystals of native RapH with selenomethionyl Spo0F(D54E), as the native crystals but Bis-Tris at pH 5.8; SAD phasing, initial model at 2.70 Å; isomorphous to the native crystals; conditions: both partners purified

B1: RapH-E137A (enzyme)
chain: GSMSQAIPSSRVGVKINEWYKMIRQFSVPDAEILKAEVEQDIQQMEEDQDLLIYYSLMCFRHQLMLDYLEPGKTYGNRPTVTELLETIETPQKKLTGLLKYYSLFFRGMYEFDQKEYVEAIGYYREAEKELPFVSDDIAKAEFHFKVAEAYYHMKQTHVSMYHILQALDIYQNHPLYSIRTIQSLFVIAGNYDDFKHYDKALPHLEAALELAMDIQNDRFIAISLLNIANSYDRSGDDQMAVEHFQKAAKVSREKVPDLLPKVLFGLSWTLCKAGQTQKAFQFIEEGLDHITARSHKFYKELFLFLQAVYKETVDERKIHDLLSYFEKKNLHAYIEACARSAAAVFESSCHFEQAAAFYRKVLKAQEDILKGECLYAY
For B1, the Spo0F~P remaining after 40 min, in vitro phosphatase assay (wild-type control 7%) (% of Spo0F~P remaining) [1] was 15.

B2: RapF-H50L (enzyme)
chain: MTGVISSSSIGEKINEWYMYIRRFSIPDAEYLRREIKQELDQMEEDQDLLLYYSLMEFRHNLMLEYLEPLEKMRIEEQPRLSDLLLEIDKKQARLTGLLEYYFNFFRGMYELDQREYLSAIKFFKKAESKLIFVKDRIEKAEFFFKMSESYYYMKQTYFSMDYARQAYEIYKEHEAYNIRLLQCHSLFATNFLDLKQYEDAISHFQKAYSMAEAEKQPQLMGRTLYNIGLCKNSQSQYEDAIPYFKRAIAVFEESNILPSLPQAYFLITQIHYKLGKIDKAHEYHSKGMAYSQKAGDVIYLSEFEFLKSLYLSGPDEEAIQGFFDFLESKMLYADLEDFAIDVAKYYHERKNFQKASAYFLKVEQVRQLIQGGVSLYEIEV
With B2 the Spo0F~P remaining after 30 min, in vitro phosphatase assay (26 uM RapF); RapF-H50L dephosphorylates Spo0F (% of Spo0F~P remaining) [2] was 16.

B3: RapF (natural protein)
chain: MTGVISSSSIGEKINEWYMYIRRFSIPDAEYLRREIKQELDQMEEDQDLHLYYSLMEFRHNLMLEYLEPLEKMRIEEQPRLSDLLLEIDKKQARLTGLLEYYFNFFRGMYELDQREYLSAIKFFKKAESKLIFVKDRIEKAEFFFKMSESYYYMKQTYFSMDYARQAYEIYKEHEAYNIRLLQCHSLFATNFLDLKQYEDAISHFQKAYSMAEAEKQPQLMGRTLYNIGLCKNSQSQYEDAIPYFKRAIAVFEESNILPSLPQAYFLITQIHYKLGKIDKAHEYHSKGMAYSQKAGDVIYLSEFEFLKSLYLSGPDEEAIQGFFDFLESKMLYADLEDFAIDVAKYYHERKNFQKASAYFLKVEQVRQLIQGGVSLYEIEV
In the case of B3, the Spo0F~P remaining after 30 min, in vitro phosphatase assay (26 uM RapF); wild-type RapF does not dephosphorylate Spo0F (% of Spo0F~P remaining) [2] is reported as 54.

B4: RapH-L50A (enzyme)
chain: GSMSQAIPSSRVGVKINEWYKMIRQFSVPDAEILKAEVEQDIQQMEEDQDLAIYYSLMCFRHQLMLDYLEPGKTYGNRPTVTELLETIETPQKKLTGLLKYYSLFFRGMYEFDQKEYVEAIGYYREAEKELPFVSDDIEKAEFHFKVAEAYYHMKQTHVSMYHILQALDIYQNHPLYSIRTIQSLFVIAGNYDDFKHYDKALPHLEAALELAMDIQNDRFIAISLLNIANSYDRSGDDQMAVEHFQKAAKVSREKVPDLLPKVLFGLSWTLCKAGQTQKAFQFIEEGLDHITARSHKFYKELFLFLQAVYKETVDERKIHDLLSYFEKKNLHAYIEACARSAAAVFESSCHFEQAAAFYRKVLKAQEDILKGECLYAY
With B4 the Spo0F~P remaining after 30 min, in vitro phosphatase assay (wild-type control 13%) (% of Spo0F~P remaining) [3] was 26.

B5: RapH-F58A (enzyme)
chain: GSMSQAIPSSRVGVKINEWYKMIRQFSVPDAEILKAEVEQDIQQMEEDQDLLIYYSLMCARHQLMLDYLEPGKTYGNRPTVTELLETIETPQKKLTGLLKYYSLFFRGMYEFDQKEYVEAIGYYREAEKELPFVSDDIEKAEFHFKVAEAYYHMKQTHVSMYHILQALDIYQNHPLYSIRTIQSLFVIAGNYDDFKHYDKALPHLEAALELAMDIQNDRFIAISLLNIANSYDRSGDDQMAVEHFQKAAKVSREKVPDLLPKVLFGLSWTLCKAGQTQKAFQFIEEGLDHITARSHKFYKELFLFLQAVYKETVDERKIHDLLSYFEKKNLHAYIEACARSAAAVFESSCHFEQAAAFYRKVLKAQEDILKGECLYAY
B5 showed a Spo0F~P remaining after 30 min, in vitro phosphatase assay (wild-type control 3%) (% of Spo0F~P remaining) [3] of 28.

B6: RapH-D134A (enzyme)
chain: GSMSQAIPSSRVGVKINEWYKMIRQFSVPDAEILKAEVEQDIQQMEEDQDLLIYYSLMCFRHQLMLDYLEPGKTYGNRPTVTELLETIETPQKKLTGLLKYYSLFFRGMYEFDQKEYVEAIGYYREAEKELPFVSADIEKAEFHFKVAEAYYHMKQTHVSMYHILQALDIYQNHPLYSIRTIQSLFVIAGNYDDFKHYDKALPHLEAALELAMDIQNDRFIAISLLNIANSYDRSGDDQMAVEHFQKAAKVSREKVPDLLPKVLFGLSWTLCKAGQTQKAFQFIEEGLDHITARSHKFYKELFLFLQAVYKETVDERKIHDLLSYFEKKNLHAYIEACARSAAAVFESSCHFEQAAAFYRKVLKAQEDILKGECLYAY
B6 gave a Spo0F~P remaining after 30 min, in vitro phosphatase assay (wild-type control 3%) (% of Spo0F~P remaining) [1] of 13.

B7: RapH-Y175A (enzyme)
chain: GSMSQAIPSSRVGVKINEWYKMIRQFSVPDAEILKAEVEQDIQQMEEDQDLLIYYSLMCFRHQLMLDYLEPGKTYGNRPTVTELLETIETPQKKLTGLLKYYSLFFRGMYEFDQKEYVEAIGYYREAEKELPFVSDDIEKAEFHFKVAEAYYHMKQTHVSMYHILQALDIYQNHPLASIRTIQSLFVIAGNYDDFKHYDKALPHLEAALELAMDIQNDRFIAISLLNIANSYDRSGDDQMAVEHFQKAAKVSREKVPDLLPKVLFGLSWTLCKAGQTQKAFQFIEEGLDHITARSHKFYKELFLFLQAVYKETVDERKIHDLLSYFEKKNLHAYIEACARSAAAVFESSCHFEQAAAFYRKVLKAQEDILKGECLYAY
In the case of B7, the Spo0F~P remaining after 30 min, in vitro phosphatase assay (wild-type control 3%) (% of Spo0F~P remaining) [1] is reported as 54.

B8: RapJ, O34327 1-373 (enzyme)
chain: MRAKIPSEEVAVKLNEWYKLIRAFEADQAEALKQEIEYDLEDMEENQDLLLYFSLMEFRHRIMLDKLMPVKDSDTKPPFSDMLNEIESNQQKLTGLLEYYFYYFRGMYEFKQKNFILAIDHYKHAEEKLEYVEDEIEKAEFLFKVAEVYYHIKQTYFSMNYASQALDIYTKYELYGRRRVQCEFIIAGNLTDVYHHEKALTHLCSALEHARQLEEAYMIAAAYYNVGHCKYSLGDYKEAEGYFKTAAAIFEEHNFQQAVQAVFSLTHIYCKEGKYDKAVEAYDRGIKSAAEWEDDMYLTKFRLIHELYLGSGDLNVLTECFDLLESRQLLADAEDLLHDTAERFNQLEHYESAAFFYRRLMNIKKKLAEQRFQ
With B8 the stoichiometry N [4] was 2.

B9: Spo0F (natural protein, B. subtilis)
chain: GSMMNEKILIVDDQYGIRILLNEVFNKEGYQTFQAANGLQALDIVTKERPDLVLLDMKIPGMDGIEILKRMKVIDENIRVIIMTAYGELDMIQESKELGALTHFAKPFDIDEIRDAVKKYLPLKSN
notes: two heterologous N-terminal residues (Gly-Ser) derived from the thrombin cleavage signal; Spo0F, B. subtilis strain 168, residues 1-124; The methods name the vector pETDuet-1 but purify over glutathione resin and remove a GST tag; also called Spo0FA; Spo0FB; source: E. coli BL21(DE3), purified (glutathione resin, thrombin, Source 15Q and HiTrap Heparin flow-through, Superdex 200); …
B9: binds [5].

B10 was tested, and the “stoichiometry N” value [6] was 2.

B11: selenomethionyl Spo0F-D54E (natural protein, B. subtilis)
chain: GSMMNEKILIVDDQYGIRILLNEVFNKEGYQTFQAANGLQALDIVTKERPDLVLLEMKIPGMDGIEILKRMKVIDENIRVIIMTAYGELDMIQESKELGALTHFAKPFDIDEIRDAVKKYLPLKSN
modifications: selenomethionyl (selenomethionine derivatized)
notes: two heterologous N-terminal residues (Gly-Ser) derived from the thrombin cleavage signal; purified in an identical manner to Spo0F; Spo0F, B. subtilis strain 168, residues 1-124, with D54E; Used for SAD phasing; PDB 3Q15 holds the parent (wild-type Spo0F); source: E. coli BL21(DE3), purified as Spo0F (buffer D with 120 mM MgCl2); not shown: GST, N-terminal, cleaved
B11: binds [7].
